{
  "source": "patent US11464871B2",
  "about": "“Methods and systems for polymer precipitation and generation of particles” (priority 2012, dated 2022)",
  "assay": "Physical stability and re-dispersion of chilled-acetone precipitated polymer conjugate particles",
  "format": "physicochemical",
  "procedure": "A 600 mL beaker of 300 mL of acetone with magnetic stir bar was pre-chilled to −78° C. in a dry ice/acetone bath. A solution of polymer conjugate HG6 (2 grams), obtained without further preparation from Example 3, was added dropwise over a 4 minute period into the beaker with chilled acetone with stirring and maintained in the dry ice/acetone bath. Individual free flowing polymer particles (resembling chards or flakes) were formed (FIG. 3) and remained in suspension under stirring conditions. After 25 minutes, the chilled acetone was decanted and replaced with fresh pre-chilled acetone (300 mL at −78° C.) and stirred for an additional 30 minutes to afford a suspension of polymer particles in chilled acetone.\nFrom the polymer particles/chilled acetone suspension further steps were conducted. First, a portion of polymer particles (still in acetone) was removed from the suspension and allowed to dry at room temperature. […] A second portion of polymer particles (still in acetone) was removed from the suspension and frozen in liquid nitrogen (N2) and lyophilized for 24 hours.",
  "data": [
    {"substance": "Poly(CDDCys-PA-PEG)-Gly-CPT [HG6]", "values": [
      {"measurement": "Re-dispersion of lyophilized polymer particles in water", "setting": "frozen in liquid N2, lyophilized 24 hours, water, even after 24 hours and sonication", "result": "did not re-disperse in water"},
      {"measurement": "Physical stability of lyophilized polymer particles in ambient environment", "setting": "lyophilized particles exposed to the ambient environment", "result": "melted into yellow oil"},
      {"measurement": "Re-dispersion of lyophilized polymer particles with acetone", "setting": "lyophilized particles, with addition of acetone", "result": "re-dispersion was successful"},
      {"measurement": "Physical stability of precipitated polymer particles allowed to dry", "setting": "portion removed from acetone suspension, dried at room temperature", "result": "melted into yellow oil"},
      {"measurement": "Physical stability of polymer particle suspension in acetone", "setting": "still in acetone, warmed to room temperature for 72 hours", "result": "remained a stable free flowing suspension"}
    ]}
  ]
}
